Test results as given in patent US20230390362A1, “USE OF TRIGONAL AGONIST HAVING ACTIVITIES TO ALL OF GLUCAGON, GLP-1, AND GIP RECEPTORS IN TREATMENT OF SEQUELAE FOLLOWING RESPIRATORY INFECTIOUS DISEASES” (HANMI PHARM. CO., LTD., priority 2020, published 2023).
Positions of bridges follow the written chain, without caps; N, C: chain ends. Non-standard residues stand in square brackets, D forms with d. No end group written: not given here. *: point of attachment. Acetyl(2-(4-imidazolyl)) = O=C(Cc1c[nH]cn1)*; Aib = CC(C)(N)C(=O)O

T1: human GIP receptor (human, UniProt P48546 22-466)
T1 sequence (looked up): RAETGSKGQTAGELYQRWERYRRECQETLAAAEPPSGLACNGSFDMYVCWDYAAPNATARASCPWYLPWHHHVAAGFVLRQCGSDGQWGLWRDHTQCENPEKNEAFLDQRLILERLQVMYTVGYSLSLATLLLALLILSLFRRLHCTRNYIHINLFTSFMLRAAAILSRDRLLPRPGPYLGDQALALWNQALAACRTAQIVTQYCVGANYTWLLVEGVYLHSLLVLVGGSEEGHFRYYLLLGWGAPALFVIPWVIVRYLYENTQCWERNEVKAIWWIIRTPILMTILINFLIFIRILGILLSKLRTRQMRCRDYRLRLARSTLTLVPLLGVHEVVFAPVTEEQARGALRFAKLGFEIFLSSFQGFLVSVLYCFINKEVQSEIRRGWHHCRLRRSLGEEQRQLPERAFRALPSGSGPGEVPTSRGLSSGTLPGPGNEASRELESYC


Legend:
Test in all cases: cell-based or functional assay
human GLP-1 receptor = human GLP-1 receptor (human, UniProt P43220 24-463)
human GIP receptor = target: T1, human GIP receptor
human GCG receptor = human GCG receptor (human, UniProt P47871 26-477)
human GCG receptor, sequence (P47871 26-477): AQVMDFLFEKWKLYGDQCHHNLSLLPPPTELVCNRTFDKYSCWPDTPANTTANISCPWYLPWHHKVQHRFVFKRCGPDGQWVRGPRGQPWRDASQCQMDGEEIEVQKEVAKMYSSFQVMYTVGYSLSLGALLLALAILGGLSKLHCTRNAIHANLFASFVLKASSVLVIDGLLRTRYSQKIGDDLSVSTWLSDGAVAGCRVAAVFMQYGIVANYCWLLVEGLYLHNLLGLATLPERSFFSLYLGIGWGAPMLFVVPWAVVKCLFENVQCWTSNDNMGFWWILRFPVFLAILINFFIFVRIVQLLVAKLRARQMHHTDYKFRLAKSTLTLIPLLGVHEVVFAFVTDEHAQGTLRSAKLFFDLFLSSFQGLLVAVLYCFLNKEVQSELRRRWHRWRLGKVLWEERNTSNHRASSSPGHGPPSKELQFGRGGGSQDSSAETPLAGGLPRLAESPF

Row | Binder | In vitro activity relative to native peptide (%), vs. GLP-1 (cAMP EC50) (human GLP-1 receptor) | In vitro activity relative to native peptide (%), vs. GIP (cAMP EC50) (human GIP receptor) | In vitro activity relative to native peptide (%), vs. Glucagon (cAMP EC50) (human GCG receptor)
1 | Y[Aib]QGTFTSDYSKCLDERAAKEFVQWLLDHHPSSGQPPPS (bridge 16-20) [trigonal agonist of SEQ ID NO: 69] | 24.3% | 62.8% | 9.6%
2 | {Acetyl(2-(4-imidazolyl))}-[Aib]QGTFTSDYSKYLDECRAKEFVQWLLDHHPSSGQPPPS (bridge 15-19) [trigonal agonist of SEQ ID NO: 73] | 22.6% | 3% | 5.4%
3 | H[Aib]EGTFTSDYSIAMDEIHQKDFVDWLLAEKC (bridge 16-20) [trigonal agonist of SEQ ID NO: 80] | 8.1% | 0.1% | 0%
4 | H[Aib]QGTFTSDVSKYLDGQAAQEFVAWLLAGC [trigonal agonist of SEQ ID NO: 9] | 32.1% | < 0.1% | 0.13%
5 | Y[Aib]QGTFTSDYSKYLDEKAAKDFVQWLLDHHPSSGQPPPSC (bridge 16-20) [trigonal agonist of SEQ ID NO: 77] | 38.7% | 35.5% | 12.2%
6 | {Acetyl(2-(4-imidazolyl))}-[Aib]QGTFTSDCSKYLDERAAQDFVQWLLDGGPSSGAPPPS [trigonal agonist of SEQ ID NO: 63] | 15.3% | < 0.1% | < 0.1%
7 | Y[Aib]QGTFTSDYSKYLDECAAKEFVQWLLDHHPSSGQPPPS (bridge 16-20) [trigonal agonist of SEQ ID NO: 64] | 64.6% | 92.9% | 60.1%
8 | H[Aib]EGTFTSDYSIAMDEIHQKDFVNWLLAQKC (bridge 16-20) [trigonal agonist of SEQ ID NO: 79] | 41.5% | 1.4% | 4.9%
9 | {Acetyl(2-(4-imidazolyl))}-[Aib]QGTFTSDKSKYLDERAAQDFVQWLLDGGPSSGAPPPS [trigonal agonist of SEQ ID NO: 62] | 5.2% | < 0.1% | < 0.1%
10 | {Acetyl(2-(4-imidazolyl))}-[Aib]QGTFTSDYSIAMDEIHQKDFVNWLLAQC (bridge 15-19) [trigonal agonist of SEQ ID NO: 85] | 4.3% | 0.3% | < 0.1%
11 | {Acetyl(2-(4-imidazolyl))}-[Aib]QGTFTSDYSIAMDEIACKDFVNWLLNTK (bridge 15-19) [trigonal agonist of SEQ ID NO: 61] | 59.8% | 2.8% | < 0.1%
12 | {Acetyl(2-(4-imidazolyl))}-[Aib]QGTFTSDYSIAMDEKHCKDFVNWLLNTK (bridge 15-19) [trigonal agonist of SEQ ID NO: 60] | 106% | 8.2% | < 0.1%
13 | {Acetyl(2-(4-imidazolyl))}-[Aib]QGTFTSDYSKYLDEKRQKEFVQWLLNTC (bridge 15-19) [trigonal agonist of SEQ ID NO: 81] | 7.8% | < 0.1% | 0.3%
14 | {Acetyl(2-(4-imidazolyl))}-[Aib]QGTFTSDYSKCLDEKRAKEFVQWLLDHHPSSGQPPPS (bridge 15-19) [trigonal agonist of SEQ ID NO: 74] | 12.9% | 1% | 0.9%
15 | {Acetyl(2-(4-imidazolyl))}-[Aib]EGTFTSDYSIAMDEIHQKDFVNWLLAQC (bridge 15-19) [trigonal agonist of SEQ ID NO: 83] | 47.3% | 0.4% | 1.3%
16 | Y[Aib]QGTFTSDYSKYLDEKRAKDFVQWLLDHHPSSGQPPPSC (bridge 16-20) [trigonal agonist of SEQ ID NO: 76] | 10.3% | 11.7% | 47.6%
17 | Y[Aib]QGTFTSDCSKYLDERAAKDFVQWLLDHHPSSGQPPPS (bridge 16-20) [trigonal agonist of SEQ ID NO: 72] | 11.5% | 1.6% | 1%
18 | Y[Aib]QGTFTSDYSKYLDEKAAKEFVQWLLDHHPSSGQPPPSC (bridge 16-20) [trigonal agonist of SEQ ID NO: 75] | 35.1% | 18% | 8.5%
19 | {Acetyl(2-(4-imidazolyl))}-[Aib]QGTFTSDYSKYLDEKRQKEFVQWLLDTC (bridge 15-19) [trigonal agonist of SEQ ID NO: 82] | 9.5% | < 0.1% | 1.1%
20 | Y[Aib]QGTFTSDYSKCLDEKAAKEFVQWLLDHHPSSGQPPPS (bridge 16-20) [trigonal agonist of SEQ ID NO: 68] | 27.9% | 107% | 8.8%
21 | H[Aib]QGTFTSDVSKYLDGQAAKEFVAWLLKGC [trigonal agonist of SEQ ID NO: 7] | 13.7% | < 0.1% | < 0.1%
22 | {Acetyl(2-(4-imidazolyl))}-[Aib]EGTFTSDYSIAMDEIHQKDFVDWLLAEC (bridge 15-19) [trigonal agonist of SEQ ID NO: 84] | 4.2% | < 0.1% | < 0.1%
23 | Y[Aib]QGTFTSDYSKCLDEKRAKDFVQWLLDHHPSSGQPPPS (bridge 16-20) [trigonal agonist of SEQ ID NO: 70] | 15.1% | 64.4% | 71.3%
24 | H[Aib]QGTFTSDVSKYLDGQAAQEFVAWLLKGC [trigonal agonist of SEQ ID NO: 8] | 14.2% | < 0.1% | 0.1%
25 | H[Aib]QGTFTSDYSKCLDEKRAKEFVQWLLDHHPSSGQPPPS (bridge 16-20) [trigonal agonist of SEQ ID NO: 65] | 95.4% | 11.6% | 25.2%
26 | Y[Aib]QGTFTSDYSKYLDECAAKDFVQWLLDHHPSSGQPPPS (bridge 16-20) [trigonal agonist of SEQ ID NO: 67] | 28.5% | 39.8% | 46.2%
27 | Y[Aib]QGTFTSDYSKYLDECRAKDFVQWLLDHHPSSGQPPPS (bridge 16-20) [trigonal agonist of SEQ ID NO: 66] | 15.8% | 17.2% | 172%
28 | Y[Aib]QGTFTSDYSKYLDERACKDFVQWLLDHHPSSGQPPPS (bridge 16-20) [trigonal agonist of SEQ ID NO: 71] | 90.1% | 94.7% | 12.7%
